# Measurements taken from the supplement of paper PMC10567573.
# ± gives the standard deviation.
# Experiment: protein stability index of a GFP-peptide fusion (GPS, HEK-293T) (PSI 1-6); higher = more stable
# [1] = treatment: DMSO, c terminus: a fixed tail appended
# [2] = treatment: MLN4924 1 uM, 8 h, c terminus: a fixed tail appended
# [3] = treatment: DMSO, c terminus: native
# [4] = treatment: MLN4924 1 uM, 8 h, c terminus: native
# 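Note: 24-mer peptide tiles fused after GFP, lentivirally expressed, FACS-sorted into six equal bins by GFP/DsRed ratio, decoded by Illumina sequencing, PSI is the read-weighted mean bin number.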
Sequence,protein stability index [1],protein stability index [2],protein stability index [3],protein stability index [4]
AAHLALLLLCGTISLRVYRKVLQA [RTN2],2.49 ± 0.33,2.51 ± 0.73,–,–
AALRLHRLLRDSEAFCHANCSGPA [P3H4],2.1 ± 0.1,2.27 ± 0.27,–,–
AALSEENTGKTYFFVANKYWRYDE [MMP1],2.49 ± 0.37,2.21 ± 0.18,–,–
AALTEALQRQAEQNPTASYYNVVL [FCHO1],2.3 ± 0.33,2.21 ± 0.33,–,–
AAVLQYASLVGQKCSERMLLFRN [ATE1],–,–,2.38 ± 0.043,2.27 ± 0.33
ADAISENYRIMSYFKEAELKDLLL [WEE1],2.61 ± 0.22,2.72 ± 0.54,–,–
ADGAWVVKMFYSFQDKRNLYLIME [STK38L],3.11 ± 1,2.99 ± 0.79,–,–
ADKYALERLKVMCEEALCSNLSVE [SPOPL],3.56 ± 0.18,3.62 ± 0.18,–,–
ADQRSRMLSIFYFAIPVGSGLGYI [SPNS1],2.44 ± 0.52,2.26 ± 0.31,–,–
ADVWSLGVMLYTLLVGRYPFHDSD [TRIB1],3.15 ± 0.26,2.58 ± 0.26,–,–
AEFEKLSDQVKISEEALRADGFGD [SAT2],5.33 ± 0.11,5.45 ± 0.15,–,–
AEGSNSESSDDDSEEAPSTSGMGF [SDE2],5.37 ± 0.15,5.26 ± 0.36,–,–
AEIPDGPPVVAHYDMSDTNSDPEV [C18orf25],5.65 ± 0.21,5.48 ± 0.23,–,–
AEPGFEPADCKRKEEAGAPGGGAG [CEBPB],5.48 ± 0.47,5.56 ± 0.15,–,–
AESRGHSKGWGRNYASIIRRDCMW [MYCL],2.23 ± 0.2,2.61 ± 0.39,–,–
AFMLFRKRLGSMILAFRPRPNYF [GDAP1],–,–,2.5 ± 0.53,2.12 ± 0.47
AFSSRLGGSRGAPGLLMAVGQDLY [DCAF4],2.19 ± 0.48,2.15 ± 0.38,–,–
AGAFGYFQQDTKGLVDFRDVALAL [LPCAT4],1.98 ± 0.18,2.12 ± 0.18,–,–
AGAPPPSGSAVSTAPQQKPIGKIS [SRPK2],5.01 ± 0.26,5.04 ± 0.24,–,–
AGLAELGHRLAQKLQGLENWGQDP [PBXIP1],2.79 ± 0.17,2.85 ± 0.33,–,–
AIIASLTFLYTLLREVIHPLATSH [STEAP1],3.25 ± 0.34,2.89 ± 0.39,–,–
AKLVDLPCVIESLRTLDKKTFYKT [TAF7L],2.52 ± 0.47,2.18 ± 0.42,–,–

Sequence,protein stability index [1],protein stability index [2],protein stability index [3],protein stability index [4]
ALARNLLVDGETGESFPAQVPSGE [NFE2L1],4.79 ± 0.45,4.5 ± 0.61,–,–
ALCENFPEEMATYLRYVRRLDFFE [CSNK1G1],2.21 ± 0.73,2.26 ± 0.26,–,–
ALQVPRGKEDSTLQLLREENRALQ [CBY2],4.13 ± 0.25,4.23 ± 0.084,–,–
ALRLAELARRRRRRQARREAEADK [NOP53],4.12 ± 0.21,4.37 ± 0.82,–,–
ALVGDEVELPCRISPGKNATGMEV [MOG],4.03 ± 0.22,4.23 ± 0.26,–,–
AMEPDRKAAVSHWQQQSYLDSGIH [CTNNB1],3.91 ± 0.31,3.95 ± 0.32,–,–
ANDYKDTLGKGSSLSAPSKKTSR [KRT71],–,–,5.26 ± 0.32,5.12 ± 0.47
APATTSSWEVVRNPLIASSFSLVK [C22orf31],2.91 ± 0.24,2.96 ± 0.1,–,–
APVTFRHHRYDDLVRTLYKVQNEC [CPN1],2.62 ± 0.065,2.83 ± 0.12,–,–
AQDLGELLATAEQEQLSLSQRQAK [LRRC45],5.25 ± 0.3,5.34 ± 0.058,–,–
AQPPDYTFPSGSGAHFPQVPGGAV [PI4K2A],3.93 ± 0.19,4.01 ± 0.12,–,–
ARERAKLQIELGKCKAEHDQLLLN [LMNB1],3.47 ± 0.098,3.14 ± 0.1,–,–
ARKARKYEIPHFRLKKVENIKIWL [PHTF1],2.09 ± 0.83,1.96 ± 0.46,–,–
ARMLSSNERDSSEPGNFIPLFTPQ [CDC25A],3.85 ± 0.25,3.96 ± 0.4,–,–
ASAPTYPSLYSSYHQGCLVNPTGN [NANOGP8],3.29 ± 0.19,3.44 ± 0.17,–,–
ASASCSHWRECLFYPALWPQLRIC [FBXO33],2.44 ± 0.53,2.23 ± 0.39,–,–
ASHCLMNHPDLAKDLTEYLKVRSH [PDS5B],3.05 ± 0.27,3.01 ± 0.18,–,–
ATKITLSAIYKWITDNFCYFRHAD [FOXJ1],3 ± 0.21,2.77 ± 0.49,–,–
AVNNGDFEAYAKICDPGLTSFEPE [CAMK2B],4.35 ± 0.27,4.38 ± 0.14,–,–
AVVHEYALAVCLSFFYPVLFVLFM [SOAT1],3.29 ± 0.42,3.02 ± 0.21,–,–
AVVNELIDYGANVNQPNNNGFTPL [ANKRD44],3.05 ± 0.2,3.21 ± 0.17,–,–
AVYDGSSSVEDLKAKFCSTVANDV [NETO1],4.03 ± 0.19,4.17 ± 0.31,–,–

Sequence,protein stability index [1],protein stability index [2],protein stability index [3],protein stability index [4]
AWQYGPCTGITRLQRWCRAKHMGL [POLD4],2.15 ± 0.12,2.3 ± 0.42,–,–
AYCLDQGAEDGDRAILYPCHGMSS [GALNT9],3.67 ± 0.29,3.69 ± 0.11,–,–
AYFAGNQKQLEQTLQQFNIKLRPP [ARFIP2],2.63 ± 0.16,2.76 ± 0.29,–,–
AYRCGSGMQMAEDSKSLKTHQTQP [NET1],3.94 ± 0.16,3.22 ± 0.25,–,–
CATTNASGNSCGPCGTSQKGCCN [KRT34],–,–,3.78 ± 0.17,3.66 ± 0.31
CAVLLSAVQAQAGWLQHDFGHLSV [FADS1],3.25 ± 0.5,3.3 ± 0.65,–,–
CCHRSQKGFPGCKLGLHDNHWVPA [FBXO34],2.2 ± 0.39,2.16 ± 0.34,–,–
CFRMQINHAIDIICGFLKERCFRG [OAS1],2.44 ± 0.66,2.61 ± 0.36,–,–
CFYRGYTSGVAAVQDWYHFHYVDI [SCNN1D],3.06 ± 0.86,2.92 ± 0.75,–,–
CGADVNVRDSDDNSPLHIAALNNH [FEM1C],2.9 ± 0.34,2.83 ± 0.24,–,–
CGGSGGGGGGGGGGGGCSSGSSYC [LURAP1L],3.28 ± 0.46,3.22 ± 0.22,–,–
CIGLQNLKLLDELPIAKVMKDYLK [ASB7],2.11 ± 0.28,2.27 ± 0.39,–,–
CIHTGLSQYIAVEAAEGRNKNEVF [FBXO3],3.38 ± 0.49,3.48 ± 0.19,–,–
CLLQPPSCPNGMSAENGLEKSGFS [DLC1],3.99 ± 0.14,3.44 ± 0.8,–,–
CLPLTFCIHTGLSQYIAVEAAEGR [FBXO3],2.96 ± 0.72,2.4 ± 0.93,–,–
CLTLTPRPATEAELLTCHSAEYVG [HDAC6],3.48 ± 0.16,3.43 ± 0.16,–,–
CNVDLLKIIQLGLTFMNEQGEYPP [CNOT7],2.96 ± 1.3,2.48 ± 0.18,–,–
CPIDQHHRNQCQYCRLKKCLKVGM [NR2F2],2.97 ± 0.038,3.36 ± 0.36,–,–
CSISKMEEEAGQTSIEPSKSSIIP [ZER1],4.59 ± 0.28,4.53 ± 0.2,–,–
CSSRPLQKGSHPMCKEHEDEKINI [TRIM63],4.81 ± 0.093,4.84 ± 0.24,–,–
CTSRIFVQKSIYSEFLKRFVEATR [ALDH8A1],2.36 ± 0.52,2.34 ± 0.5,–,–
